In US8697117B2, “Drug-eluting films” (Ramot at Tel-Aviv University Ltd., priority 2010, dated 2014):
“And” between values parts separate entries of the source, which are not always exact repeats. Equal entries are not always repeated.

Tests used:
Type in all cases: physicochemical
[1] = Encapsulation efficiency of the loaded agent in the films
[2] = Morphological characterization of porous films by SEM (mean pore diameter, porosity)
Protocol: The morphology of the porous films (cryogenically fractured surfaces) was observed by scanning electron microscopy (SEM) using a JEOL JSM-6300 microscope at an accelerating voltage of 5 kV. The SEM samples were Au-sputtered prior to observation. The mean pore diameter (n=100 small pores or 50 large pores) and porosity of the observed morphologies were analyzed using the Sigma Scan Pro software, and statistics were calculated using SPSS 10 software. Statistical significance was determined based on ANOVA (Tukey-Kramer). The area occupied by the pores was calculated for each SEM fractograph using Sigma Scan Pro software in order to evaluate the porosity of the samples. Porosity was determined as the area occupied by the pores divided by the total area.

[3] = In vitro HRP release from porous films in PBS at 37° C. (micro BCA)
Protocol: Small 1.5 cm by 2.0 cm films (four samples) were immersed in phosphate-buffered saline (PBS) at 37° C. for 28 days in order to determine the HRP release kinetics from these structures. The release studies were conducted in closed glass tubes containing 2.0 ml PBS medium. The medium was removed (completely) periodically, at each sampling time, and fresh medium was introduced. Sampling was carried out at 0.5, 1, 2, 3, 7, 14, 21 and 28 days.
The HRP concentration of each medium sample was determined using the micro BCA assay method, by measuring absorbance at 562 nm, using a SpectraMax 340 PC^384 plate reader spectrophotometer. Cumulative HRP release profiles were determined relative to the initial amount of HRP in the composite fibers (HRP released during the incubation period+the residue remaining in the fibers). Four repetitions were performed for each sample, and the results are presented as means±one standard deviation.

[4] = In vitro drug release from films in PBS at 37° C. (HPLC); settings: for time at which the drug was almost fully released: antibiotic-loaded 50:50 PDLGA films, O:A 6:1, 2% drug
Protocol: Small films of 1.5 cm by 0.5 cm, were immersed in phosphate buffered saline (PBS) at 37° C. for 70 days in order to determine the various drug release kinetics therefrom in four repetitions. The release studies were conducted in closed glass tubes containing 3.0 ml PBS medium. The medium was removed completely at various time points, and at each sampling time fresh medium was introduced. The medium's drug concentration was determined using Jasco High Performance Liquid Chromatography (HPLC) with a UV 2075 plus detector and a reverse phase column kept at 25° C.

[5] = HRP film, reference formulation A (1.0% w/w HRP, 17.5% w/v, O:A 4:1, 50/50, 83 kDa)
[6] = as reference formulation A but 0.5% w/w HRP
[7] = as reference formulation A but 2.0% w/w HRP
[8] = as reference formulation A but 15% w/v polymer
[9] = as reference formulation A but 20% w/v polymer
[10] = as reference formulation A but 25% w/v polymer
[11] = as reference formulation A but 75/25 PDLGA
[12] = as reference formulation A but O:A 2:1
[13] = as reference formulation A but O:A 6:1
[14] = as reference formulation A but O:A 8:1
[15] = as reference formulation A but polymer initial MW 50 kDa
[16] = as reference formulation A but polymer initial MW 185 kDa
[17] = drug-loaded 50:50 PDLGA 17.5% w/v film, no surfactant, 28 000 rpm
[18] = drug-loaded film, BSA (1%), 14 000 rpm
[19] = drug-loaded film, BSA (1%), 28 000 rpm
[20] = drug-loaded film, no surfactant, 14 000 rpm
[21] = drug-loaded film, BSA (5%), 28 000 rpm
[22] = drug-loaded film, BSA (5%), 28 000 rpm, listed as paclitaxel
[23] = 5% w/v BSA film versus film with no surfactant, 28000 rpm

HRP: Horseradish peroxidase, 44 kDa; served as a surfactant and a protein-type biomolecule model
Encapsulation efficiency ([1]; HRP film, 0.5 w/w HRP): 89% | Encapsulation efficiency ([1]; HRP film, 1 w/w HRP, 17.5% w/v polymer (reference formulation A)): 87% | Encapsulation efficiency ([1]; HRP film, 2 w/w HRP): 86% | Encapsulation efficiency ([1]; HRP film, 15.5% w/v polymer): 90% | Encapsulation efficiency ([1]; HRP film, 25% w/v polymer): 85% | Mean large pore diameter [2, 5]: 17.1 ± 2.7 μm | Mean small pore diameter [2, 5]: 4.3 ± 0.8 μm | Porosity [2, 5]: 86.9 ± 2.6% | Mean large pore diameter [2, 6]: 16.0 ± 1.6 μm | Mean small pore diameter [2, 6]: 4.5 ± 1.3 μm | Porosity [2, 6]: 88.6 ± 1.4% | Mean large pore diameter [2, 7]: 16.0 ± 1.4 μm | Mean small pore diameter [2, 7]: 3.9 ± 0.4 μm | Porosity [2, 7]: 85.4 ± 2.2% | Mean small pore diameter [2, 8]: 5.5 μm and 5.5 ± 1.1 μm | Porosity [2, 8]: 88.2 ± 2.9% | Mean large pore diameter [2, 9]: 16.1 ± 2.3 μm | Mean small pore diameter [2, 9]: 3.2 ± 0.5 μm | Porosity [2, 9]: 85.8 ± 2.9% | Mean large pore diameter [2, 10]: 17.1 ± 1.9 μm | Mean small pore diameter [2, 10]: 1.5 μm and 1.5 ± 0.2 μm | Porosity [2, 10]: 82.2 ± 3.3% | Mean large pore diameter [2, 11]: 16.6 ± 3.6 μm | Mean small pore diameter [2, 11]: 5.9 ± 0.8 μm | Porosity [2, 11]: 89.2 ± 0.8% | Mean large pore diameter [2, 12]: 17.3 ± 3.3 μm | Mean small pore diameter [2, 12]: 4.7 μm and 4.7 ± 1.0 μm | Porosity [2, 12]: 92.5% and 92.5 ± 1.0% | Mean large pore diameter [2, 13]: 18.0 ± 3.8 μm | Mean small pore diameter [2, 13]: 3.0 ± 0.6 μm | Porosity [2, 13]: 82.1 ± 1.6% | Mean large pore diameter [2, 14]: 17.2 ± 2.1 μm | Mean small pore diameter [2, 14]: 2.3 μm and 2.3 ± 0.4 μm | Porosity [2, 14]: 76.7% and 76.7 ± 2.5% | Mean small pore diameter [2, 15]: 7.1 μm and 7.1 ± 1.4 μm | Porosity [2, 15]: 87.7 ± 2.0% | Mean large pore diameter [2, 16]: 16.4 ± 2.8 μm | Mean small pore diameter [2, 16]: 2.5 μm and 2.5 ± 0.6 μm | Porosity [2, 16]: 85.3 ± 1.2% | HRP burst release [3, 6]: 37% | HRP burst release ([3]; as reference formulation A but 2% w/w HRP): 74% | HRP burst release [3, 8]: 65% | HRP burst release [3, 10]: 47% | HRP burst release rate, 75/25 PDLGA compared to 50/50 PDLGA films [3, 11]: little difference in the burst release rates | HRP burst release [3, 12]: 58% | HRP burst release [3, 14]: 48% | HRP burst release [3, 15]: 73% | HRP burst release [3, 16]: 42% | HRP burst release ([3]; reference formulation A: 50/50 PDLGA 83 kDa, 17.5% w/v polymer, 1% w/w HRP, O:A 4:1): 57%

CC(=O)O.NCc1ccc(S(N)(=O)=O)cc1 [Mafenide acetate, 4-Aminomethylbenzenesulfonamide acetate salt]
Encapsulation efficiency [1, 17]: 71.3 ± 0.5% | Encapsulation efficiency [1, 18]: 74.6 ± 4.2% | Encapsulation efficiency [1, 19]: 78.1 ± 2.1% | Encapsulation efficiency [1, 20]: 69.6 ± 1.0% | time at which the drug was almost fully released [4]: 21 days | Mean pore diameter [2, 17]: 1.1 ± 0.3 μm | Porosity [2, 17]: 88.1 ± 1.2% | Mean pore diameter [2, 18]: 1.9 ± 0.5 μm | Porosity [2, 18]: 83.7 ± 2.4% | Mean pore diameter [2, 19]: 0.8 ± 0.2 μm | Porosity [2, 19]: 81.7 ± 2.5% | Mean pore diameter [2, 20]: 2.2 ± 0.9 μm | Porosity [2, 20]: 81.9 ± 2.6%

Sorbitan monooleate [Span 80]
Mean pore diameter ± SD ([2]; film from reference formulation B with 5% of the named surfactant, 28000 rpm for 120 seconds): 1.5 μm and 1.5 ± 0.4 μm

CC(=O)O[C@H]1C(=O)[C@@]2(C)[C@H]([C@H](OC(=O)c3ccccc3)[C@]3(O)C[C@H](OC(=O)[C@H](O)[C@@H](NC(=O)c4ccccc4)c4ccccc4)C(C)=C1C3(C)C)[C@]1(OC(C)=O)CO[C@@H]1C[C@@H]2O [Paclitaxel]
Encapsulation efficiency [1, 17]: 52.8 ± 0.6% | Encapsulation efficiency ([1]; drug-loaded 50:50 PDLGA 17.5% w/v film, no surfactant, 28 000 rpm, listed as paclitaxel): 53% | Encapsulation efficiency [1, 21]: 35.6 ± 2.9% | Encapsulation efficiency [1, 22]: 35% | effect of BSA (fine nanostructure) on burst effect [4, 23]: did not significantly affect | effect of BSA (fine nanostructure) on release rate [4, 23]: only a slight increase | Mean pore diameter [2, 17]: 2.6 ± 0.8 μm | Porosity [2, 17]: 81.5 ± 3.8% | Mean pore diameter [2, 21]: 0.6 ± 0.1 μm | Porosity [2, 21]: 74.8 ± 3.2% | Mean pore diameter [2, 22]: 0.6 μm

CC(C)(O/N=C(\C(=O)N[C@@H]1C(=O)N2C(C(=O)[O-])=C(C[n+]3ccccc3)CS[C@H]12)c1csc(N)n1)C(=O)O [Ceftazidime hydrate, ceftazidime hydrate]
Encapsulation efficiency [1, 17]: 37.0 ± 1.9% | Encapsulation efficiency [1, 18]: 58.4 ± 2.3% | Encapsulation efficiency [1, 19]: 50.7 ± 0.5% | Encapsulation efficiency [1, 20]: 41.7 ± 1.6% | time at which the drug was almost fully released [4]: ≤ 3 days | Mean pore diameter [2, 17]: 1.1 ± 0.4 μm | Porosity [2, 17]: 77.6 ± 2.2% | Mean pore diameter [2, 18]: 1.5 ± 0.5 μm | Porosity [2, 18]: 75.4 ± 0.5% | Mean pore diameter [2, 19]: 0.7 ± 0.2 μm | Porosity [2, 19]: 75.6 ± 0.5% | Mean pore diameter [2, 20]: 1.8 ± 0.7 μm | Porosity [2, 20]: 80.5 ± 3.0%
